# In article PMC2810336, “Mutational Analysis of Highly Conserved Residues in the Phage PhiC31 Integrase Reveals Key Amino Acids Necessary for the DNA Recombination”:
# T1: phiC31 integrase G182A/F183A (Streptomyces phage phiC31, UniProt Q38194 1-613, G182A;F183A)
# T1 sequence: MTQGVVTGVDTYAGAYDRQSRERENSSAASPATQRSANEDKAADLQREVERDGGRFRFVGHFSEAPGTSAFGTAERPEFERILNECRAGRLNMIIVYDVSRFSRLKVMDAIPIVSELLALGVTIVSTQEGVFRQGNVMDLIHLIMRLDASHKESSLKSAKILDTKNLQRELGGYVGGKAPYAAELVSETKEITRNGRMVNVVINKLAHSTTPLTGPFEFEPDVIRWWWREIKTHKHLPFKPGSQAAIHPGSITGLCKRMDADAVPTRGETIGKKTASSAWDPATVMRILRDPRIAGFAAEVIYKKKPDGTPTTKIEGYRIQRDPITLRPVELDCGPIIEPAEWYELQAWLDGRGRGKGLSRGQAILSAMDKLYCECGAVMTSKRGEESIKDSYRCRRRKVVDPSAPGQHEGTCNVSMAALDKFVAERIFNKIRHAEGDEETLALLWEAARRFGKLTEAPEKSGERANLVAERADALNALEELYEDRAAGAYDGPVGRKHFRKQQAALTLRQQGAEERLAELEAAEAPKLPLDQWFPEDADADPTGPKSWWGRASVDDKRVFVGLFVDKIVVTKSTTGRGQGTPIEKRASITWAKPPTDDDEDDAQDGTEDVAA
# T2: phiC31 integrase C374A (Streptomyces phage phiC31, UniProt Q38194 1-613, C374A)
# T2 sequence: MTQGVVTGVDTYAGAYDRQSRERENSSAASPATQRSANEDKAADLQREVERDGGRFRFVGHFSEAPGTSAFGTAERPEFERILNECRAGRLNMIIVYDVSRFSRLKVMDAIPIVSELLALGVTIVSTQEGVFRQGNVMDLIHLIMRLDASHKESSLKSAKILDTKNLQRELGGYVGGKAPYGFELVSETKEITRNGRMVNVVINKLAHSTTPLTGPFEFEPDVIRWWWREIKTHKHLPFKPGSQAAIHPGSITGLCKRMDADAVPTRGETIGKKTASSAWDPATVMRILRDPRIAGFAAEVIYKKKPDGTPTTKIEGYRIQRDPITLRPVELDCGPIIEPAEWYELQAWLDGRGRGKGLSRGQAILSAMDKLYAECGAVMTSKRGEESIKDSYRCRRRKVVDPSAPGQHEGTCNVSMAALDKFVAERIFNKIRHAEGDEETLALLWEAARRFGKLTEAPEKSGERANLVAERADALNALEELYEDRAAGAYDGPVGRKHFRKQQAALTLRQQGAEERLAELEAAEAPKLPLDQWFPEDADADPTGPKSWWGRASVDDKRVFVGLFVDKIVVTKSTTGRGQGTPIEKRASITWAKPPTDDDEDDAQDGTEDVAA
# T3: phiC31 integrase WT (Streptomyces phage phiC31, UniProt Q38194 1-613)
# T3 sequence: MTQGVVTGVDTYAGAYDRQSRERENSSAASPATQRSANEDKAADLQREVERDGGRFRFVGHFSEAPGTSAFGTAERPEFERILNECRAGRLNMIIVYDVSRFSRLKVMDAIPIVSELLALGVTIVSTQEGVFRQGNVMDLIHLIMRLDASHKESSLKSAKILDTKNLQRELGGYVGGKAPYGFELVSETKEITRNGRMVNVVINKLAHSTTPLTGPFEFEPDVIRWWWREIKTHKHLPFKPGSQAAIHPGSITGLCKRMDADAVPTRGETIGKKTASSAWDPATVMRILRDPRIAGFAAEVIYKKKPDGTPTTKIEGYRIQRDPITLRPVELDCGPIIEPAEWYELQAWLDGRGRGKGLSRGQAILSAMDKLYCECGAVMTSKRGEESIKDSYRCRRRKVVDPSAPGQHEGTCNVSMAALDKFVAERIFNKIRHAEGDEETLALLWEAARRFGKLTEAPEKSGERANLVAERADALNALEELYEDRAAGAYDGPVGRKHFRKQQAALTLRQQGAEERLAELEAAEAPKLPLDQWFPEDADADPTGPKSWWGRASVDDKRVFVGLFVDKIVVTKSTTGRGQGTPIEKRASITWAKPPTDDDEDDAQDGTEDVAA
# Key:
# [1] = target: T1, phiC31 integrase G182A/F183A; experiment: EMSA; 50 ng/ul Poly (competitor (so in the source)), 0.05% NP-40, 50 mM KCl, 5 mM MgCl2, 10 mM EDTA, 20 ul, 0.4 ng (16 fmol) probe; 30 min at room temperature (Methods) or 30 C; pH not stated; synapsis 2 h at 30 C; details: protein: recombinant; tags: C-terminal His; chain copies: 2; label: biotin, double-strand end-labeled; blunt
# [2] = target: T2, phiC31 integrase C374A; experiment: as above; details: protein: recombinant; tags: C-terminal His; chain copies: 2; label: biotin, double-strand end-labeled; blunt
# [3] = target: T3, phiC31 integrase WT; experiment: EMSA; complexes I, II, III; 50 ng/ul Poly (competitor (so in the source)), 0.05% NP-40, 50 mM KCl, 5 mM MgCl2, 10 mM EDTA, 20 ul, 0.4 ng (16 fmol) probe; 30 min at room temperature (Methods) or 30 C; pH not stated; synapsis 2 h at 30 C; details: protein: recombinant; tags: C-terminal His (pET22b); chain copies: 2; label: biotin, double-strand end-labeled; blunt
binder,measurement,setting,value
attP 50 bp (dsDNA) DNA 1: GTAGTGCCCCAACTGGGGTAACCTTTGAGTTCTCTCAGTTGGGGGCGTAG DNA 2: CTACGCCCCCAACTGAGAGAACTCAAAGGTTACCCCAGTTGGGGCACTAC,binding result,[1],no binding
same,binding result,[2],no binding
same,binding result,[3],binds
